According to the Human Domainome abundance scans (Beltran et al. 2025):
± gives the uncertainty stated by the source.

B1: Ankyrin-1, residues 1405 to 1484; numbered along this chain, P16157 (parent)
chain: MKMAVISEHLGLSWAELARELQFSVEDINRIRVENPNSLLEQSVALLNLWVIREGQNANMENLYTALQSIDRGEIVNMLE

Variants of: B1
Assay: abundance fitness (aPCA) (normalised: wild type 0, dead -1); higher = more abundant; growth selection in yeast, the domain comes from the species named
Conditions: Homo sapiens

V51I and V51K are within error of each other in abundance fitness: 0.017 ± 0.11 for the first, 0.156 ± 0.1 for the second.

V51W and V51F are within error of each other in abundance fitness: 0.085 ± 0.087 for the first, 0.071 ± 0.11 for the second.

First: R30K
Second: R30F
The abundance fitness of the first is higher: 0.054 ± 0.12 for the first, -0.518 ± 0.18 for the second.

R30D and L17F are within error of each other in abundance fitness: -0.122 ± 0.11 for the first, 0.009 ± 0.11 for the second.

L17Y and L17N are within error of each other in abundance fitness: -0.462 ± 0.11 for the first, -0.776 ± 0.32 for the second.

Going from L17E to L17D, the abundance fitness falls from -0.204 ± 0.16 to -1.01 ± 0.27.

Going from L17S to L17M, the abundance fitness rises from -0.853 ± 0.14 to -0.25 ± 0.12.

Compared with I31D, I31L is higher in abundance fitness: -0.918 ± 0.32 for the first, -0.149 ± 0.059 for the second.

I31Y and I31A are within error of each other in abundance fitness: -0.448 ± 0.41 for the first, -0.855 ± 0.15 for the second.

I31F and I31S are within error of each other in abundance fitness: -0.793 ± 0.44 for the first, -0.938 ± 0.18 for the second.

H9W and H9A are within error of each other in abundance fitness: -0.251 ± 0.096 for the first, -0.429 ± 0.14 for the second.

Compared with H9D, H9T is higher in abundance fitness: -0.826 ± 0.3 for the first, -0.285 ± 0.16 for the second.

H9R and H9L are within error of each other in abundance fitness: -0.33 ± 0.083 for the first, -0.438 ± 0.1 for the second.

R19V and R19A are within error of each other in abundance fitness: -0.072 ± 0.057 for the first, -0.047 ± 0.06 for the second.

R19G and R19N are within error of each other in abundance fitness: -0.229 ± 0.042 for the first, -0.32 ± 0.23 for the second.

V33A and V33T are within error of each other in abundance fitness: 0.096 ± 0.057 for the first, 0.138 ± 0.082 for the second.

V33W and V33S are within error of each other in abundance fitness: -0.073 ± 0.07 for the first, -0.03 ± 0.061 for the second.

Going from V33N to V33P, the abundance fitness falls from -0.103 ± 0.28 to -0.764 ± 0.24.

N37L and N37R are within error of each other in abundance fitness: -0.199 ± 0.074 for the first, -0.186 ± 0.092 for the second.

N37F and N37T are within error of each other in abundance fitness: -0.152 ± 0.23 for the first, -0.111 ± 0.18 for the second.

Compared with N37P, E16N is higher in abundance fitness: -1.09 ± 0.48 for the first, 0.161 ± 0.26 for the second.

E16T and E16F are within error of each other in abundance fitness: -0.222 ± 0.095 for the first, -0.23 ± 0.15 for the second.

E16W and E61G are within error of each other in abundance fitness: -0.593 ± 0.15 for the first, -0.414 ± 0.25 for the second.

S43L and S43Y are within error of each other in abundance fitness: -0.944 ± 0.13 for the first, -0.857 ± 0.16 for the second.

S43I and S43M are within error of each other in abundance fitness: -0.919 ± 0.26 for the first, -1.05 ± 0.32 for the second.

Q68C and Q68V are within error of each other in abundance fitness: -0.235 ± 0.17 for the first, -0.08 ± 0.054 for the second.

First: Q68P
Second: Q68S
The abundance fitness of the first is lower: -0.767 ± 0.2 for the first, -0.199 ± 0.062 for the second.

First: Q68M
Second: E41N
The abundance fitness of the first is lower: -0.181 ± 0.094 for the first, 0.162 ± 0.13 for the second.

First: E41F
Second: E41A
The abundance fitness of the first is lower: -0.28 ± 0.11 for the first, -0.113 ± 0.057 for the second.

Compared with E41T, E41V is lower in abundance fitness: -0.184 ± 0.072 for the first, -0.467 ± 0.067 for the second.

Going from E41C to W14E, the abundance fitness falls from -0.173 ± 0.075 to -0.788 ± 0.36.

W14P and W14H are within error of each other in abundance fitness: -0.785 ± 0.24 for the first, -0.873 ± 0.29 for the second.

W14G and W14S are within error of each other in abundance fitness: -0.895 ± 0.12 for the first, -0.89 ± 0.14 for the second.

First: E34H
Second: E34G
The abundance fitness of the first is lower: -0.453 ± 0.18 for the first, -0.166 ± 0.074 for the second.

E34M and E34Y are within error of each other in abundance fitness: -0.265 ± 0.34 for the first, -0.565 ± 0.38 for the second.

E34W and A18E are within error of each other in abundance fitness: -0.559 ± 0.28 for the first, -0.39 ± 0.14 for the second.

Going from A18N to A18V, the abundance fitness falls from -0.627 ± 0.29 to -1.07 ± 0.15.

A18R and A18L are within error of each other in abundance fitness: -0.681 ± 0.1 for the first, -0.535 ± 0.078 for the second.

A18M and R53G are within error of each other in abundance fitness: -0.827 ± 0.27 for the first, -0.507 ± 0.058 for the second.

R53Y and R53A are within error of each other in abundance fitness: -0.842 ± 0.35 for the first, -0.555 ± 0.078 for the second.

First: N59R
Second: N59G
The abundance fitness of the first is higher: 0.034 ± 0.053 for the first, -0.151 ± 0.058 for the second.

N59A and N59S are within error of each other in abundance fitness: -0.047 ± 0.078 for the first, 0.059 ± 0.062 for the second.

N59F and N59W are within error of each other in abundance fitness: -0.388 ± 0.17 for the first, -0.371 ± 0.056 for the second.

Compared with N59P, N48P is lower in abundance fitness: -0.253 ± 0.12 for the first, -1.07 ± 0.34 for the second.

First: N48W
Second: N48K
The abundance fitness of the first is lower: -0.834 ± 0.2 for the first, 0.098 ± 0.081 for the second.

Compared with N48G, N48A is lower in abundance fitness: -0.236 ± 0.055 for the first, -0.415 ± 0.064 for the second.

Compared with R72P, R72T is lower in abundance fitness: -0.226 ± 0.13 for the first, -0.797 ± 0.21 for the second.

First: F23W
Second: F23V
The abundance fitness of the first is lower: -0.964 ± 0.17 for the first, -0.144 ± 0.067 for the second.

L63C and L63R are within error of each other in abundance fitness: -0.748 ± 0.3 for the first, -0.95 ± 0.18 for the second.

Compared with L63E, L49R is higher in abundance fitness: -0.646 ± 0.24 for the first, -0.088 ± 0.049 for the second.

Going from L49K to L49D, the abundance fitness falls from 0.047 ± 0.1 to -0.196 ± 0.087.

Going from L49W to L49E, the abundance fitness rises from -0.359 ± 0.074 to -0.055 ± 0.078.

Q56C and Q56W are within error of each other in abundance fitness: -0.167 ± 0.1 for the first, -0.232 ± 0.16 for the second.

Q56P and Q56Y are within error of each other in abundance fitness: -0.052 ± 0.08 for the first, -0.147 ± 0.17 for the second.

First: Q56R
Second: G55L
The abundance fitness of the first is higher: -0.02 ± 0.046 for the first, -0.871 ± 0.2 for the second.

G55M and G55I are within error of each other in abundance fitness: -0.661 ± 0.46 for the first, -0.687 ± 0.32 for the second.

Going from G55T to G55F, the abundance fitness falls from -0.133 ± 0.15 to -0.765 ± 0.33.

G55K and G55C are within error of each other in abundance fitness: -0.666 ± 0.44 for the first, -0.389 ± 0.17 for the second.

Going from A4T to L47A, the abundance fitness falls from -0.029 ± 0.088 to -0.905 ± 0.15.

L47Y and L47H are within error of each other in abundance fitness: -0.997 ± 0.34 for the first, -0.503 ± 0.33 for the second.

L47P and L47N are within error of each other in abundance fitness: -0.654 ± 0.16 for the first, -0.914 ± 0.35 for the second.

First: L47G
Second: N29P
The abundance fitness of the first is higher: -0.521 ± 0.066 for the first, -0.952 ± 0.22 for the second.

N29D and N29I are within error of each other in abundance fitness: 0.041 ± 0.079 for the first, -0.123 ± 0.16 for the second.

N29V and N29F are within error of each other in abundance fitness: -0.213 ± 0.054 for the first, -0.376 ± 0.14 for the second.

N29E and N29G are within error of each other in abundance fitness: -0.05 ± 0.067 for the first, -0.133 ± 0.049 for the second.

N29Q and N77W are within error of each other in abundance fitness: -0.041 ± 0.077 for the first, 0.018 ± 0.1 for the second.

First: N77R
Second: N77E
The abundance fitness of the first is higher: 0.08 ± 0.065 for the first, -0.111 ± 0.11 for the second.

N77L and M78K are within error of each other in abundance fitness: -0.043 ± 0.07 for the first, 0.087 ± 0.11 for the second.

A58Q and A58M are within error of each other in abundance fitness: -0.095 ± 0.14 for the first, 0.122 ± 0.17 for the second.

A58N and A58L are within error of each other in abundance fitness: 0.092 ± 0.19 for the first, 0.157 ± 0.063 for the second.

E80C and E80N are within error of each other in abundance fitness: -0.092 ± 0.099 for the first, -0.045 ± 0.14 for the second.

Going from E80Y to L79E, the abundance fitness falls from -0.048 ± 0.1 to -0.335 ± 0.11.

L79R and L79Y are within error of each other in abundance fitness: -0.528 ± 0.082 for the first, -0.319 ± 0.14 for the second.

Going from A15H to A15V, the abundance fitness rises from -0.206 ± 0.21 to 0.066 ± 0.047.

A15K and G73L are within error of each other in abundance fitness: -0.251 ± 0.22 for the first, -0.399 ± 0.036 for the second.

G73N and G73Y are within error of each other in abundance fitness: -0.33 ± 0.15 for the first, -0.339 ± 0.085 for the second.

G73S and G73A are within error of each other in abundance fitness: -0.192 ± 0.04 for the first, -0.17 ± 0.038 for the second.

L10G and L10M are within error of each other in abundance fitness: -0.971 ± 0.21 for the first, -0.805 ± 0.27 for the second.

L10W and L10Q are within error of each other in abundance fitness: -0.872 ± 0.23 for the first, -0.898 ± 0.29 for the second.

Going from L40N to L40S, the abundance fitness rises from -0.372 ± 0.11 to -0.16 ± 0.059.

Compared with L40G, L40V is higher in abundance fitness: -0.286 ± 0.06 for the first, 0.011 ± 0.052 for the second.

First: L40I
Second: L46E
The abundance fitness of the first is higher: 0.061 ± 0.14 for the first, -0.987 ± 0.49 for the second.

L46D and L46P are within error of each other in abundance fitness: -1.1 ± 0.41 for the first, -0.891 ± 0.23 for the second.

For M60E, the abundance fitness was -0.42 ± 0.18.
